Literature values as cited in US20260297164A1, “ANTI-FIBROTIC PEPTIDES AND USES THEREOF” (Deackt, Inc., priority 2021, published 2026).

Test system: CD148
Details: extracellular proteins; cited from earlier work

B1: syndecan-2: known extracellular protein that can bind to CD148 (protein, UniProt P34741 19-201, looked up)
Syndecan-2: ESRAELTSDKDMYLDNSSIEEASGVYPIDDDDYASASGSGADEDVESPELTTSRPLPKILLTSAAPKVETTTLNIQNKIPAQTKSPEETDKEKVHLSDSERKMDPAEEDTNVYTEKHSDSLFKRTEVLAAVIAGGVIGFLFAIFLILLLVYRMRKKDEGSYDLGERKPSSAAYQKAPTKEFYA
binding to CD148 and activation of PTP activity: can bind to CD148 and activate PTP activity
